# Assays:
# [1] = molecular target: Bonsai gelsolin, fragment 28–161 of gelsolin (human); assay: SEC; 8 mg/ml in EGTA buffer heated at 30 °C for 30 min, cooled to room temperature; 200 μl injected, column at room temperature
# [2] = molecular target: Bonsai gelsolin, fragment 28–161 of gelsolin (human); assay: SAXS; 28–161 at 8 mg/ml, 1 mM EGTA, 30 °C
# [3] = molecular target: Bonsai gelsolin, fragment 28–161 of gelsolin (human); assay: SAXS; 28–161 at 8 mg/ml, 1 mM EGTA, 40 °C
# [4] = molecular target: Bonsai gelsolin, fragment 28–161 of gelsolin (human); assay: SAXS; 28–161 at 8 mg/ml, 1 mM free Ca2+, 40 °C
substance,measurement,setting,value
"Bonsai gelsolin, fragment 28–161 of gelsolin (domain or fragment)",stoichiometry N,[1],2
same,stoichiometry N,[2],2
same,stoichiometry N,[3],4
same,stoichiometry N,[4],2
